This note sets out measurements from publication PMC5115946 (Journal of molecular biology, 2016).

The target of data set [1] is UBCH5B (ubiquitin-conjugating enzyme E2 D2) (human, UniProt P62837 1-147). The experiment in a line: AUC.
Data set [2] deals with the molecule itself. Nature of the data set: AUC.

B1: RING finger protein 4 (RNF4) (enzyme, human, UniProt P78317 1-190, looked up)
chain: MSTRKRRGGAINSRQAQKRTREATSTPEISLEAEPIELVETAGDEIVDLTCESLEPVVVDLTHNDSVVIVDERRRPRRNARRLPQDHADSCVVSSDDEELSRDRDVYVTTHTPRNARDEGATGLRPSGTVSCPICMDGYSEIVQNGRLIVSTECGHVFCSQCLRDSLKNANTCPTCRKKINHKRYHPIYI
In general, Kd refers to a measure of binding affinity in units of concentration. A low value points to tighter binding. The term stoichiometry N denotes the number of molecules, sites or subunits per partner or assembly. With B1, the Kd in data set [1] turned out to be 15 µM. The “stoichiometry N” value in data set [2] turned out to be 2.
